The labels stand for the following.
B1: Compound No. 0147 (peptide)
peptide: H[Aib]HGTFTSDLSILLEK([AEEA-AEEA-γGlu-C20 diacid])KAA[Ac4c]EFVEWLLA[dE]GPSSGAPPPS-NH2
modifications: N-terminus assumed
SMILES: CC[C@H](C)[C@H](NC(=O)[C@H](CO)NC(=O)[C@H](CC(C)C)NC(=O)[C@H](CC(=O)O)NC(=O)[C@H](CO)NC(=O)[C@@H](NC(=O)[C@H](Cc1ccccc1)NC(=O)[C@@H](NC(=O)CNC(=O)[C@H](Cc1c[nH]cn1)NC(=O)C(C)(C)NC(=O)[C@@H](N)Cc1c[nH]cn1)[C@@H](C)O)[C@@H](C)O)C(=O)N[C@@H](CC(C)C)C(=O)N[C@@H](CC(C)C)C(=O)N[C@@H](CCC(=O)O)C(=O)N[C@@H](CCCCNC(=O)COCCOCCNC(=O)COCCOCCNC(=O)CC[C@H](NC(=O)CCCCCCCCCCCCCCCCCCC(=O)O)C(=O)O)C(=O)N[C@@H](CCCCN)C(=O)N[C@@H](C)C(=O)N[C@@H](C)C(=O)NC1(C(=O)N[C@@H](CCC(=O)O)C(=O)N[C@@H](Cc2ccccc2)C(=O)N[C@H](C(=O)N[C@@H](CCC(=O)O)C(=O)N[C@@H](Cc2c[nH]c3ccccc23)C(=O)N[C@@H](CC(C)C)C(=O)N[C@@H](CC(C)C)C(=O)N[C@@H](C)C(=O)N[C@H](CCC(=O)O)C(=O)NCC(=O)N2CCC[C@H]2C(=O)N[C@@H](CO)C(=O)N[C@@H](CO)C(=O)NCC(=O)N[C@@H](C)C(=O)N2CCC[C@H]2C(=O)N2CCC[C@H]2C(=O)N2CCC[C@H]2C(=O)N[C@@H](CO)C(N)=O)C(C)C)CCC1
B2: Compound No. 0145 (peptide)
peptide: H[Aib]HGTFTSDLSILLEK([AEEA-AEEA-γGlu-C20 diacid])QAA[Ac4c]EFVEWLLA[dE]GPSSGAPPPS-NH2
modifications: N-terminus assumed
SMILES: CC[C@H](C)[C@H](NC(=O)[C@H](CO)NC(=O)[C@H](CC(C)C)NC(=O)[C@H](CC(=O)O)NC(=O)[C@H](CO)NC(=O)[C@@H](NC(=O)[C@H](Cc1ccccc1)NC(=O)[C@@H](NC(=O)CNC(=O)[C@H](Cc1c[nH]cn1)NC(=O)C(C)(C)NC(=O)[C@@H](N)Cc1c[nH]cn1)[C@@H](C)O)[C@@H](C)O)C(=O)N[C@@H](CC(C)C)C(=O)N[C@@H](CC(C)C)C(=O)N[C@@H](CCC(=O)O)C(=O)N[C@@H](CCCCNC(=O)COCCOCCNC(=O)COCCOCCNC(=O)CC[C@H](NC(=O)CCCCCCCCCCCCCCCCCCC(=O)O)C(=O)O)C(=O)N[C@@H](CCC(N)=O)C(=O)N[C@@H](C)C(=O)N[C@@H](C)C(=O)NC1(C(=O)N[C@@H](CCC(=O)O)C(=O)N[C@@H](Cc2ccccc2)C(=O)N[C@H](C(=O)N[C@@H](CCC(=O)O)C(=O)N[C@@H](Cc2c[nH]c3ccccc23)C(=O)N[C@@H](CC(C)C)C(=O)N[C@@H](CC(C)C)C(=O)N[C@@H](C)C(=O)N[C@H](CCC(=O)O)C(=O)NCC(=O)N2CCC[C@H]2C(=O)N[C@@H](CO)C(=O)N[C@@H](CO)C(=O)NCC(=O)N[C@@H](C)C(=O)N2CCC[C@H]2C(=O)N2CCC[C@H]2C(=O)N2CCC[C@H]2C(=O)N[C@@H](CO)C(N)=O)C(C)C)CCC1
B3: Compound No. 0148 (peptide)
peptide: H[Aib]HGTFTSDLSILLEK([AEEA-AEEA-γGlu-C20 diacid])QAA[Ac3c]EFVEWLLA[dE]GPSSGAPPPS-NH2
modifications: N-terminus assumed
SMILES: CC[C@H](C)[C@H](NC(=O)[C@H](CO)NC(=O)[C@H](CC(C)C)NC(=O)[C@H](CC(=O)O)NC(=O)[C@H](CO)NC(=O)[C@@H](NC(=O)[C@H](Cc1ccccc1)NC(=O)[C@@H](NC(=O)CNC(=O)[C@H](Cc1c[nH]cn1)NC(=O)C(C)(C)NC(=O)[C@@H](N)Cc1c[nH]cn1)[C@@H](C)O)[C@@H](C)O)C(=O)N[C@@H](CC(C)C)C(=O)N[C@@H](CC(C)C)C(=O)N[C@@H](CCC(=O)O)C(=O)N[C@@H](CCCCNC(=O)COCCOCCNC(=O)COCCOCCNC(=O)CC[C@H](NC(=O)CCCCCCCCCCCCCCCCCCC(=O)O)C(=O)O)C(=O)N[C@@H](CCC(N)=O)C(=O)N[C@@H](C)C(=O)N[C@@H](C)C(=O)NC1(C(=O)N[C@@H](CCC(=O)O)C(=O)N[C@@H](Cc2ccccc2)C(=O)N[C@H](C(=O)N[C@@H](CCC(=O)O)C(=O)N[C@@H](Cc2c[nH]c3ccccc23)C(=O)N[C@@H](CC(C)C)C(=O)N[C@@H](CC(C)C)C(=O)N[C@@H](C)C(=O)N[C@H](CCC(=O)O)C(=O)NCC(=O)N2CCC[C@H]2C(=O)N[C@@H](CO)C(=O)N[C@@H](CO)C(=O)NCC(=O)N[C@@H](C)C(=O)N2CCC[C@H]2C(=O)N2CCC[C@H]2C(=O)N2CCC[C@H]2C(=O)N[C@@H](CO)C(N)=O)C(C)C)CC1
B4: Compound No. 0149 (peptide)
peptide: H[Aib]HGTFTSDYSILLEK([AEEA-AEEA-γGlu-C20 diacid])QAA[Ac3c]EFVEWLLA[dE]GPSSGAPPPS-NH2
modifications: N-terminus assumed
SMILES: CC[C@H](C)[C@H](NC(=O)[C@H](CO)NC(=O)[C@H](Cc1ccc(O)cc1)NC(=O)[C@H](CC(=O)O)NC(=O)[C@H](CO)NC(=O)[C@@H](NC(=O)[C@H](Cc1ccccc1)NC(=O)[C@@H](NC(=O)CNC(=O)[C@H](Cc1c[nH]cn1)NC(=O)C(C)(C)NC(=O)[C@@H](N)Cc1c[nH]cn1)[C@@H](C)O)[C@@H](C)O)C(=O)N[C@@H](CC(C)C)C(=O)N[C@@H](CC(C)C)C(=O)N[C@@H](CCC(=O)O)C(=O)N[C@@H](CCCCNC(=O)COCCOCCNC(=O)COCCOCCNC(=O)CC[C@H](NC(=O)CCCCCCCCCCCCCCCCCCC(=O)O)C(=O)O)C(=O)N[C@@H](CCC(N)=O)C(=O)N[C@@H](C)C(=O)N[C@@H](C)C(=O)NC1(C(=O)N[C@@H](CCC(=O)O)C(=O)N[C@@H](Cc2ccccc2)C(=O)N[C@H](C(=O)N[C@@H](CCC(=O)O)C(=O)N[C@@H](Cc2c[nH]c3ccccc23)C(=O)N[C@@H](CC(C)C)C(=O)N[C@@H](CC(C)C)C(=O)N[C@@H](C)C(=O)N[C@H](CCC(=O)O)C(=O)NCC(=O)N2CCC[C@H]2C(=O)N[C@@H](CO)C(=O)N[C@@H](CO)C(=O)NCC(=O)N[C@@H](C)C(=O)N2CCC[C@H]2C(=O)N2CCC[C@H]2C(=O)N2CCC[C@H]2C(=O)N[C@@H](CO)C(N)=O)C(C)C)CC1
B5: Compound No. 0146 (peptide)
peptide: H[Aib]HGTFTSDLSILLEK([AEEA-AEEA-γGlu-C20 diacid])KAA[Ac3c]EFVEWLLA[dE]GPSSGAPPPS-NH2
modifications: N-terminus assumed
SMILES: CC[C@H](C)[C@H](NC(=O)[C@H](CO)NC(=O)[C@H](CC(C)C)NC(=O)[C@H](CC(=O)O)NC(=O)[C@H](CO)NC(=O)[C@@H](NC(=O)[C@H](Cc1ccccc1)NC(=O)[C@@H](NC(=O)CNC(=O)[C@H](Cc1c[nH]cn1)NC(=O)C(C)(C)NC(=O)[C@@H](N)Cc1c[nH]cn1)[C@@H](C)O)[C@@H](C)O)C(=O)N[C@@H](CC(C)C)C(=O)N[C@@H](CC(C)C)C(=O)N[C@@H](CCC(=O)O)C(=O)N[C@@H](CCCCNC(=O)COCCOCCNC(=O)COCCOCCNC(=O)CC[C@H](NC(=O)CCCCCCCCCCCCCCCCCCC(=O)O)C(=O)O)C(=O)N[C@@H](CCCCN)C(=O)N[C@@H](C)C(=O)N[C@@H](C)C(=O)NC1(C(=O)N[C@@H](CCC(=O)O)C(=O)N[C@@H](Cc2ccccc2)C(=O)N[C@H](C(=O)N[C@@H](CCC(=O)O)C(=O)N[C@@H](Cc2c[nH]c3ccccc23)C(=O)N[C@@H](CC(C)C)C(=O)N[C@@H](CC(C)C)C(=O)N[C@@H](C)C(=O)N[C@H](CCC(=O)O)C(=O)NCC(=O)N2CCC[C@H]2C(=O)N[C@@H](CO)C(=O)N[C@@H](CO)C(=O)NCC(=O)N[C@@H](C)C(=O)N2CCC[C@H]2C(=O)N2CCC[C@H]2C(=O)N2CCC[C@H]2C(=O)N[C@@H](CO)C(N)=O)C(C)C)CC1

Starred links: 1 amine or outer side, 2 acyl side, 3 side chain; linkers in the order of their positions; H or OH if unused. Non-standard residues stand in square brackets, D forms with d. Groups on a side chain read outwards from the residue. No end group written: not given here. *: point of attachment. C20 diacid = O=C(O)CCCCCCCCCCCCCCCCCCC(=O)*; γGlu = O=C(O)[C@H](CCC(=O)[*:2])N[*:1]; Ac4c = NC1(C(=O)O)CCC1; AEEA = NCCOCCOCC(=O)O; Ac3c = NC1(C(=O)O)CC1; Aib = CC(C)(N)C(=O)O

One test deals with T1, human glucose-dependent insulinotropic polypeptide receptor (human, UniProt P48546 22-466).
T1 sequence (looked up): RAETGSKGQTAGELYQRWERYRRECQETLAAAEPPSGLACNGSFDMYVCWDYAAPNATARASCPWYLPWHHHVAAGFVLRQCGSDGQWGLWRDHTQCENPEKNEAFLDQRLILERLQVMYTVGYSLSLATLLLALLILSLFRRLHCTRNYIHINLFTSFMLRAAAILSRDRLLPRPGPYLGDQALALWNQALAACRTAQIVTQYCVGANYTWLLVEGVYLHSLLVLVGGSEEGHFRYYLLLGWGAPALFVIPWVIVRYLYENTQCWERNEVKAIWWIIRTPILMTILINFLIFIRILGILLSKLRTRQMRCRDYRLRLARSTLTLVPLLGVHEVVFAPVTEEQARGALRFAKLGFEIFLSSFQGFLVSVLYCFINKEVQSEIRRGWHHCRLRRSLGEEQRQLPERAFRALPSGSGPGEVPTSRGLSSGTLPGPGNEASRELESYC
As to the kind of experiment: cell-based or functional assay.
For the molecule B1, the “Activity against human GIPR (EC50 nM)” value turned out to be 0.005 nM.

Regarding B2, the “Activity against human GIPR (EC50 nM)” value is 0.003 nM.

B3: the “Activity against human GIPR (EC50 nM)” value was 0.006 nM.

For the molecule B4, the “Activity against human GIPR (EC50 nM)” value came to 0.004 nM.

With B5, the “Activity against human GIPR (EC50 nM)” value is 0.009 nM.

In a further test the target is human glucagon receptor (human, UniProt P47871 26-477). The test is described as follows: cell-based or functional assay.
Sequence of human glucagon receptor (P47871 26-477): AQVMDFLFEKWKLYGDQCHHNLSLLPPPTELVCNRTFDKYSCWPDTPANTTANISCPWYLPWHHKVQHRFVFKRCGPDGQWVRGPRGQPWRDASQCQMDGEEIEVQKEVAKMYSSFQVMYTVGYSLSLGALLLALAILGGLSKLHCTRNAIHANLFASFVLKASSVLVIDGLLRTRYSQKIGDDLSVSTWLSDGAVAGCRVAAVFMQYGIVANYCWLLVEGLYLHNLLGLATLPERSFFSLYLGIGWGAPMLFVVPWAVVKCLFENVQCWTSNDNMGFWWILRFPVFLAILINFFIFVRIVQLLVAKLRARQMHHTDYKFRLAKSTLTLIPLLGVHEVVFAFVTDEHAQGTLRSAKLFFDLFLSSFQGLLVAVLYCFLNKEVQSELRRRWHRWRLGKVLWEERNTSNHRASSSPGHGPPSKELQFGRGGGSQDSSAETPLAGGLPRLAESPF
B1: the “Activity against human GCGR (EC50 nM)” value was determined as 0.041 nM.

Consider B2, for which the “Activity against human GCGR (EC50 nM)” value amounted to 0.143 nM.

As to B3, the “Activity against human GCGR (EC50 nM)” value was found to be 0.549 nM.

For the molecule B4, the “Activity against human GCGR (EC50 nM)” value came out at 0.301 nM.

As for B5, the “Activity against human GCGR (EC50 nM)” value amounted to 0.146 nM.

Another test has as its target human glucagon-like peptide-1 receptor (human, UniProt P43220 24-463). The test is described as follows: cell-based or functional assay.
As for B1, the “Activity against human GLP-1R (EC50 nM)” value was determined as 0.035 nM.

Regarding B2, the “Activity against human GLP-1R (EC50 nM)” value was 0.057 nM.

Take B3: the “Activity against human GLP-1R (EC50 nM)” value was 0.06 nM.

As for B4, the “Activity against human GLP-1R (EC50 nM)” value turned out to be 0.071 nM.

With B5, the “Activity against human GLP-1R (EC50 nM)” value was 0.033 nM.

(Values after EP4745153A1, “GLP-1, GIP AND GCG RECEPTOR […] USE THEREOF” (Jiangsu Hengrui Pharmaceuticals Co., Ltd., priority 2023, dated 2025).)
